This is an account of results in article PMC5354205, “Structure and assembly of scalable porous protein cages” (Nature Communications, 2017).

Where “and” joins values, the source holds several entries; their conditions need not be identical. Equal values may be shown once.

Series [1] concerns the target AaLS-neg (lumazine synthase from Aquifex aeolicus with R83E, T86E, T120E, Q123E), C-terminal His6-tag (Aquifex aeolicus) (UniProt O66529). As to the kind of experiment: cryo-EM structure; single-particle reconstruction; 20 mM Tris-HCl pH 7.8, 0.2 M NaCl, 5 mM EDTA; monomer 80, 80 and 300 uM; Titan Krios 300 kV.
In series [2] the target is lumazine synthase from Aquifex aeolicus, wild-type protein (AaLS-wt), C-terminal His6-tag (Aquifex aeolicus) (UniProt O66529). As to the kind of experiment: native MS; 5 uM monomer in 150 mM ammonium acetate, 25 mM triethylammonium acetate, pH 7.8; modified qTOF, nano-electrospray, positive ion mode; subunit copy number of the cage.
Series [3] shares this target. As to the kind of experiment: cryo-EM structure; single-particle reconstruction; 20 mM Tris-HCl pH 7.8, 0.2 M NaCl, 5 mM EDTA; monomer 80, 80 and 300 uM; Titan Krios 300 kV.
Series [4] concerns the molecule itself. Briefly: native MS; AaLS-neg pre-incubated in low ionic strength buffer: 10 mM ammonium acetate, pH 7.8; cage dissociated into smaller capsomers.
Series [5] concerns the molecule itself. Briefly: native MS; 5 uM monomer in 150 mM ammonium acetate, 25 mM triethylammonium acetate, pH 7.8; modified qTOF, nano-electrospray, positive ion mode; subunit copy number of the cage.

Regarding “AaLS-neg (lumazine synthase from Aquifex aeolicus with R83E, T86E, T120E, Q123E), C-terminal His6-tag (from UniProt O66529 1-154)”, in series [1], the stoichiometry N came to 180.

On to “lumazine synthase from Aquifex aeolicus, wild-type protein (AaLS-wt), C-terminal His6-tag (from UniProt O66529 1-154) (enzyme)”, for which the stoichiometry N in series [2] and in series [3] was 60 throughout.

B1: AaLS-neg lacking a His6-tag (pMG211_AaLS-neg_noHis) (other, Aquifex aeolicus, UniProt O66529 1-154, looked up)
chain: MEIYEGKLTAEGLRFGIVASRFNHALVDRLVEGAIDCIVRHGGREEDITLVRVPGSWEIPVAAGELARKEDIDAVIAIGVLIEGAEPHFDYIASEVSKGLANLSLELRKPITFGVITADELEEAIERAGTKHGNKGWEAALSAIEMANLFKSLR
notes: lumazine synthase, Aquifex aeolicus, with four lumenal residues mutated to glutamate; Made for native MS; 180-mer in 150 mM ammonium acetate; pentamers, 10-mers and 15-mers after low ionic strength; source: E. coli BL21-gold (DE3), purified (lysate heated at 85 °C, MonoQ anion exchange, SEC Sephacryl S-400); copies: 180
Take B1: the “stoichiometry N” value in series [4] was 5 and 10 and 15; in series [5] it was 180.

B2: AaLS-13 lacking a His6-tag (pMG211_AaLS-13_noHis) (other, Aquifex aeolicus, UniProt O66529 1-154, looked up)
chain: MEIYEGKLTAEGLRFGIVASRFNHALVGRLVEGAIDCIVRHGGREEDITLVCVPGSWEIPVAAGELARKEDIDAVIAIGVLIEGAEPHFDYIASEVSKGLANLSLELRKPISFGDITDDELEEAIECAGTEHGNKGWEAALSAIEMANLFKSLR
notes: lumazine synthase, Aquifex aeolicus, with the four mutations of AaLS-neg and seven more from directed evolution; Made for native MS; charge states not resolved, the copy number only estimated (240 to 420); source: E. coli BL21-gold (DE3), purified (ammonium sulphate, MonoQ anion exchange, SEC Sephacryl S-400; 3 mM DTT added)
With B2, in series [5], the “stoichiometry N” value is 240 to 420.
